Values quoted from earlier work as cited in PMC12805357, “Cooperative ligand binding in a bacterial heme-based oxygen sensor” (The Journal of Biological Chemistry, 2025).

B1: HemAT-Bs: globin-coupled sensor from Bacillus subtilis, MCP output domain (protein, UniProt O07621 1-432, looked up)
Heme-based aerotactic …: MLFKKDRKQETAYFSDSNGQQKNRIQLTNKHADVKKQLKMVRLGDAELYVLEQLQPLIQENIVNIVDAFYKNLDHESSLMDIINDHSSVDRLKQTLKRHIQEMFAGVIDDEFIEKRNRIASIHLRIGLLPKWYMGAFQELLLSMIDIYEASITNQQELLKAIKATTKILNLEQQLVLEAFQSEYNQTRDEQEEKKNLLHQKIQETSGSIANLFSETSRSVQELVDKSEGISQASKAGTVTSSTVEEKSIGGKKELEVQQKQMNKIDTSLVQIEKEMVKLDEIAQQIEKIFGIVTGIAEQTNLLSLNASIESARAGEHGKGFAVVANEVRKLSEDTKKTVSTVSELVNNTNTQINIVSKHIKDVNELVSESKEKMTQINRLFDEIVHSMKISKEQSGKIDVDLQAFLGGLQEVSRAVSHVAASVDSLVILTEE
B2: hhMb: myoglobin comparison protein listed as hhMb in Table S2, literature values (protein, UniProt P68082 2-154, looked up)
Myoglobin: GLSDGEWQQVLNVWGKVEADIAGHGQEVLIRLFTGHPETLEKFDKFKHLKTEAEMKASEDLKKHGTVVLTALGGILKKKGHHEAELKPLAQSHATKHKIPIKYLEFISDAIIHVLHSKHPGDFGADAQGAMTKALELFRNDIAAKYKELGFQG

Columns and labels:
[1] = HemAT-Bs
[2] = design: method as in earlier work; conditions: myoglobins; ref 7 of the supplement (Faulkner et al., 1995)

Molecule | n (Hill coefficient), O2 binding [1] | Kd ([1]; read-out: Kd, equilibrium oxygen affinity) | Midpoint 1 (mV vs SHE) [2]
B1 | 0.45 | 10 µM | –
B2 | – | – | 37 mV vs SHE
